The target of test [1] is RSVA2.
Test [2] has as its target RSVB18537.
Test [3] has as its target hPIVC243.

Drawing on patent US20260131011A1, this text covers EC50 for one molecule.

No end group written: not given here.

VALDPIDISIELNKAKSDLEESKEWIRRSNQKLDSI (also: conjugated to cholesterol) [HPIV3_3004 (native) HR2 ligand conjugated to cholesterol (Peptide Conjugate 12)]: the 50% effective concentration (EC50) (in general, the concentration that produces a half-maximal response) was 0.05 µM in test [1], under 0.04 µM in test [2] and over 5.29 µM in test [3].
